For this experiment, the target named is Flag-TRF2 (Telomeric repeat-binding factor 2), wild type (not stated (human or mouse cDNA cloned)) (UniProt Q15554). The experiment is described as follows: co-IP; 293T or U2OS cells co-transfected with epitope-tagged cDNAs, lysed 48 h later in BCO 300 buffer (20 mM HEPES pH 7.5, 10% glycerol, 1 mM EDTA, 0.1% NP-40); Flag M2 affinity gel; SDS-PAGE and blot.
Sequence of UniProt Q15554 (Q15554 whole entry): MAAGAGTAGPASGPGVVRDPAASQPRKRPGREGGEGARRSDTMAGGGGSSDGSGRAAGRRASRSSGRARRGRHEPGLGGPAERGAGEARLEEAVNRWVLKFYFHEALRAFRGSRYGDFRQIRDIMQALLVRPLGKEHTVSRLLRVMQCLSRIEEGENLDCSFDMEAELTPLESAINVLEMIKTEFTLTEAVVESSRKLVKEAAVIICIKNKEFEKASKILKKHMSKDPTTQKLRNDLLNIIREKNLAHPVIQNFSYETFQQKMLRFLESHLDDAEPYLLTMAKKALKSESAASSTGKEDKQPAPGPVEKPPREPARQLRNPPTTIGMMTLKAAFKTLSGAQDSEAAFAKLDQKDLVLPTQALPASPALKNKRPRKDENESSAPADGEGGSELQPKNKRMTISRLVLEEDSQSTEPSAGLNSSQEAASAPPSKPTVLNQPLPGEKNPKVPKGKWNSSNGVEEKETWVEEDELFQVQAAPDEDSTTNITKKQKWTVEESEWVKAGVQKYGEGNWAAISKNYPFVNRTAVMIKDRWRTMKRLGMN

As for “ADAR1p110, wild type (expressed construct) (natural protein)”, the fold binding relative to TRF2^ΔB turned out to be 3 fold.
